The source of these data is patent US20210155689A1 (SHANGHAI PHARMAEXPLORER, published 2021).

Positions count from the first letter of the chain named.

Experiment [1] deals with T1, human LAG-3 on cells (HEK293-hLAG-3 stable cell line) (human, UniProt P18627 23-525).
T1 sequence: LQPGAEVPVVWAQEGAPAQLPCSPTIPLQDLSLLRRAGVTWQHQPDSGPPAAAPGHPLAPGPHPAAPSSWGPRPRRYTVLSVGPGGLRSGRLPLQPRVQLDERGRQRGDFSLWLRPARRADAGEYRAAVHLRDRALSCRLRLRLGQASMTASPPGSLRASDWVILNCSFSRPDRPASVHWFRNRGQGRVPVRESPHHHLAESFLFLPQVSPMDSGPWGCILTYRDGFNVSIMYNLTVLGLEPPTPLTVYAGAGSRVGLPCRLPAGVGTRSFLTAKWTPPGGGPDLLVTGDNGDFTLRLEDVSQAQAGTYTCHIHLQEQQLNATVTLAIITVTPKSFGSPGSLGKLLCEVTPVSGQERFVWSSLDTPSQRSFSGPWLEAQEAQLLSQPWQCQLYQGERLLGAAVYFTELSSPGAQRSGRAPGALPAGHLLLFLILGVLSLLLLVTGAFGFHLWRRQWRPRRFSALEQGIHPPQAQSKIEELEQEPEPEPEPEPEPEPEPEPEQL
The experiment can be described thus: FACS, HEK293-hLAG-3, antibody 0.064 nM. The source says:
(§1) The pIRES plasmid with the monkey-derived full-length gene was transfected into the HEK293 cell line to construct a HEK293 stable cell line containing monkey LAG-3 (herein referred to as HEK293-cLAG-3 stable cell line). The HEK293-hLAG-3 stable cell line and HEK293-cLAG-3 stable cell line were expanded in a T-75 cell culture flask to a 90% confluence. The medium was aspirated, and the cells were washed with HBSS (Hanks' Balanced Salt Solution) 1-2 times, then treated with a enzyme-free cell dissociation fluid (Versene solution: Life technology) and the cells were collected. The cells were washed with HBSS buffer for 1-2 times. After counted, the cells were diluted with HBSS to 1-2×10⁶ cells per ml, added with 1% goat serum blocking solution, incubated on ice for 20-30 minutes, and then washed with HBSS for 2 times by centrifugation. The collected cells were suspended in the FACS buffer (HBSS+1% BSA) to 2×10⁶ cells/ml, added as 100 microliters per well to a 96-well FACS reaction plate, added with 100 microliters per well of the antibody sample to be tested, incubated on ice for 1-2 hours. The plate was washed twice with the FACS buffer by centrifugation, added with 100 microliters of fluorescent (Alexa 488)-labeled secondary antibodies per well, and incubated on ice for 0.5-1.0 hours. The plate was washed 2-3 times with FACS buffer by centrifugation, added with 100 μl fixative solution (4% Paraformaldehyde) per well to suspend the cells. 5-10 minutes later, it was washed 1-2 times with FACS buffer by centrifugation. The cells were suspended with 100 microliters of FACS buffer, FACS (FACSCalibur, BD) was used for detection and the results were analyzed.
(In flow cytometry, cells or beads pass a laser one at a time.)

In experiment [2] the target is T1, human LAG-3 on cells (HEK293-hLAG-3 …). The experiment is described as follows: FACS, HEK293-hLAG-3, antibody 40.000 nM.
Excerpt: as §1

For experiment [3], the target named is T2, monkey LAG-3 (full length, on the cell surface) (monkey, UniProt P18627 24-525 (human entry)).
T2 construct: also called HEK293-cLAG-3; monkey LAG-3 protein on the cell surface
T2 chain: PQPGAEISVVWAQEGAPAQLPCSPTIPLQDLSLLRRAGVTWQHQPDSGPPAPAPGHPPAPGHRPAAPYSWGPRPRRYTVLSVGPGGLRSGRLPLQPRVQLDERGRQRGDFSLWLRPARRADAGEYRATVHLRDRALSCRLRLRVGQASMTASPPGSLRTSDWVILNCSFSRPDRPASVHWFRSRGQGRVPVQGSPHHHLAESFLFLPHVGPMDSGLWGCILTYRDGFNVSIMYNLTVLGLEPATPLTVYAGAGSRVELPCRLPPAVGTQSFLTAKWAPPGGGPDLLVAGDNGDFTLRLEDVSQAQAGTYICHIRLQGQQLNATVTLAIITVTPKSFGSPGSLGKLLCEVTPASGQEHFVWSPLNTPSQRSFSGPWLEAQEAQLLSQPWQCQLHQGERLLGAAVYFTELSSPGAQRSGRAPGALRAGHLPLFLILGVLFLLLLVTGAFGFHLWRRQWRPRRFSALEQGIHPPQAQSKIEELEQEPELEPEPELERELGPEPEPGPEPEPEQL
The experiment is described as follows: FACS, HEK293-cLAG-3; 40.000 nM.
Excerpt: as §1

The target of experiment [4] is T3, human LAG-3 protein with hFc tag (hLAG-3-hFc protein) (human, UniProt P18627 23-450).
T3 construct: also called immunogen 1; LAG-3 extracellular domain protein; not shown: human IgG Fc fragment (hFc) of the pCpC vector
T3 sequence: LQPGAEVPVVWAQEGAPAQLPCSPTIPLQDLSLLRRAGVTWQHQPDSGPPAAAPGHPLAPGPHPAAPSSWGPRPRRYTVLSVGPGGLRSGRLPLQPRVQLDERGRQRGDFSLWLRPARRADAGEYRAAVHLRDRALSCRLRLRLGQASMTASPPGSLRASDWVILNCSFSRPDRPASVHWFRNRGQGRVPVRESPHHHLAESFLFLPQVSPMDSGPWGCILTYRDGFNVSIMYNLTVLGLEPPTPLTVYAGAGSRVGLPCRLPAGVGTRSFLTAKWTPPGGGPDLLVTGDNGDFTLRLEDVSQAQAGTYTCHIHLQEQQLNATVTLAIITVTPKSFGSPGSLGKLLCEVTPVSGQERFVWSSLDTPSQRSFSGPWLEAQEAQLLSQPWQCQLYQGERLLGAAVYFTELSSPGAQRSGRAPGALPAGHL
The experiment is described as follows: FACS, blocks LAG-3-hFc binding to MHC II on Raji; 7.407 nM. How it is done:
The FACS reaction plate incubating the Raji cells was centrifuged to discard the supernatant. The above mixture was added as 100 μl per well to Raji cells and incubated on ice for 1-2 hours. The plate was washed twice with blocking solution (PBS, 2% fetal bovine serum) by centrifugation, added with 100 microliters of fluorescent (Alexa 488)-labeled secondary antibodies per well, and incubated on ice for 1.0 hours. The plate was washed 2-3 times by centrifugation with blocking solution (PBS, 2% fetal bovine serum), added with 100 microliters of PBS per well to suspend cells, and detected using FACS (FACS Calibur, BD) and the results were analyzed. Wherein, the IgG control was murine IgG, and the data in the table is the inhibition rate (%).

B1: 556F6B8 mouse-human chimeric antibody (antibody, V domains shown)
VH: RVQLKQSGPGLVQPSQSLSITCTVSGFSLIKYGVHWVRQSPGEGLEWLGVIWRGGITDYNAAFMSRLSITKDNSKSQVFFKMNSLQADDTAIYYCAKWDGPLAMDYWGQGTSVTVSS
VL: DIVMTQSHKFLSTSVGDRVSITCKASQDVGTTVAWYQQKPGQSPKLLIYWASTRHTGVPDRFTGSGSGTDFTLTISNVQSEDLADYFCQQYSSYPYTFGGGTKLEIK
notes: also called mAb123-556F6B8; 556F8B8
As to B1, the Mean fluorescence intensity in experiment [1] is 6.5; in experiment [2] it was 123.

B2: 556F6B8 (mouse antibody purified from hybridoma) (antibody, V domains shown)
VH: B1 VH
VL: B1 VL
notes: also called mAb123-556F6B8
With B2, the Mean fluorescence intensity in experiment [3] worked out at 51 MFI. Further, in experiment [4], the “Inhibition rate (%)” value was found to be 93.3%.

B3: 405B8H3 (mouse antibody purified from hybridoma) (antibody, V domains shown)
VH: QVQLQQSGAELVRPGASVTLSCKASGYTFTDYEMHWVKQTPVHGLEWIGATDPETGNSAYNQKFKGKAIMTADKSSSTAYMELRSLTSEDSAVYYCISTGWNDWGQGTSLTVSS
VL: DIKMTQSPSSMYASLGERVTITCKASQDINSYLSWFQQKPGKSPKTLIYRADRLLDGVPSRFSGSGSGQDYSLTISSLEYGDMGIYYCLQYDEFPYTFGGGTKLEIK
notes: also called mAb103-405B8H3; 405B81-13
The molecule B3 returned a Mean fluorescence intensity in experiment [3] of 108 MFI. In addition, the “Inhibition rate (%)” value in experiment [4] turned out to be 87.3%.

B4: 105F1E10 (mouse antibody purified from hybridoma) (antibody, V domains shown)
VH: EVQLQQSGPELVKPGASVKMSCRASGYTFTDFKMHWMKQSHGKSLEWIGYIAPNNGGTAYNQKFRGKATLTVNESSNTAYMELRSLTSEDSAVYYCVDWDDVDYWGQGTTLTVSS
VL: B3 VL with P40S, D52N, L55V, G81E, D92V, Y96L, G100A, I106L
notes: also called mAb009-105F1E10
In turn, B4 came in with a Mean fluorescence intensity in experiment [3] of 87 MFI. Besides, the “Inhibition rate (%)” value in experiment [4] came to 81%.

B5: 405B8H3 mouse-human chimeric antibody (antibody, V domains shown)
VH: B3 VH
VL: B3 VL
notes: also called mAb103-405B8H3
For the molecule B5, the values for the Mean fluorescence intensity in experiment [1] and in experiment [2] were 6.3 and 158, respectively.

B6: 105F1E10 mouse-human chimeric antibody (antibody, V domains shown)
VH: B4 VH
VL: B3 VL with P40S, D52N, L55V, G81E, D92V, Y96L, G100A, I106L
notes: also called mAb009-105F1E10
Consider B6, for which the Mean fluorescence intensity in experiment [1] came to 5.1; in experiment [2] it was 146.

B7: 409B11E12 (mouse antibody purified from hybridoma) (antibody, V domains shown)
VH: B3 VH with P41T, G56S, N57Y, M70L, S98A
VL: B3 VL with I2L, D52N, G81E
notes: also called mAb104-409B11E12
In the case of B7, the Mean fluorescence intensity in experiment [3] is 102 MFI. Further, the “Inhibition rate (%)” value in experiment [4] came to 93.4%.

B8: 409D4E10 mouse-human chimeric antibody (antibody, V domains shown)
VH: B3 VH with Y27N, G56D, S58T, M70L, A72T, S98T, T99S
VL: B3 VL with D52N, G81E, D92N
notes: also called mAb112-409D4E10
As to B8, the Mean fluorescence intensity in experiment [1] is 6.3; in experiment [2] it was 140.

B9: 409D4E10 (mouse antibody purified from hybridoma) (antibody, V domains shown)
VH: B3 VH with Y27N, G56D, S58T, M70L, A72T, S98T, T99S
VL: B3 VL with D52N, G81E, D92N
notes: also called mAb112-409D4E10
Take B9: the Mean fluorescence intensity in experiment [3] worked out at 130 MFI. Further, the “Inhibition rate (%)” value in experiment [4] was found to be 93%.

B10: 409B11E12 mouse-human chimeric antibody (antibody, V domains shown)
VH: B3 VH with P41T, G56S, N57Y, M70L, S98A
VL: B3 VL with I2L, D52N, G81E
notes: also called mAb104-409B11E12
For B10, the Mean fluorescence intensity in experiment [1] amounted to 6.3; in experiment [2] it was 150.
